Reference: publication PMC6197226, “ZZ-dependent regulation of p62/SQSTM1 in autophagy” (Nature Communications, 2018)

Molecular target: T1, p62 ZZ domain (aa 115-190) (human, UniProt Q13501 115-190)
T1 construct: p62/SQSTM1 ZZ domain, human, aa 115-190; uniformly 15N-labeled for NMR; unlabeled for MST; also called p62_(ZZ (115-190)); source: E. coli BL21 (DE3) RIL, purified (glutathione Sepharose, size exclusion)
Experiment: MST; displacement assay: unlabeled peptide added to a preformed complex of 40 uM ZZ (aa 115-190) and 80 nM FAM-labeled peptide; Ki from IC50, called Kd in the text; 10 mM HEPES pH 7.4, 150 mM NaCl, 1 mM TCEP; triplicates
Conditions: both partners purified

Kd: 320 µM
B1: K100EKKECRRDHR110 (p62_(100-110)) peptide (peptide)
peptide: KEKKECRRDHR
notes: p62/SQSTM1 regulatory linker between PB1 and ZZ, aa 100-110; also called RL peptide; RL; source: synthetic peptide (SynPeptide or KE BioChem)
